System: patients with uncontrolled gout
Assay: Health Assessment Questionnaire (HAQ-DI, HAQ pain, HAQ health), open-label study
Type: in vivo, human
Set-up: key to HAQ-Health, Observed, Median / HAQ-Health, Change from Baseline, Median: 0-100 scale; 0 = very well, 100 = very poor health; key to HAQ-DI, Observed, Median / HAQ-DI, Change from Baseline, Median: HAQ-DI scale 0-3; 0 = no difficulty, 3 = unable to do
Conditions: mITT
Procedure: Quality-of-Life Assessment: The HAQ was administered at the Screening and Week −4 or week −6 (prior to the first dose of MTX) Visits during the MTX Run-in Period for the open-label and randomized studies, respectively; prior to pegloticase infusion at the Day 1 and Weeks 14, 24 and 36 Visits or at the Day 1 and weeks 6, 14, 20, 24, 30, 36, and 44 visits during the Pegloticase+IMM Period for the open-label and randomized studies, respectively; at the End of Pegloticase Infusions Visit (if applicable), the Week 52/End of Study/Early Termination Visit and the Post Treatment Periods 3 and 6 Month Follow-up Visits (open-label study). The HAQ-DI is a self-report functional status instrument that can be filled out by a subject in less than 5 minutes and requires 1 minute to score. The index measures disability over the past week by asking a total of 20 questions covering 8 domains of function: dressing and grooming, arising, eating, walking, hygiene, reach, grip, and usual activities. There are at least 2 questions in each domain and the 8 domains represent a comprehensive set of functional activities. The HAQ-DI is calculated by scoring the answer to each question in the HAQ from 0 to 3, with 0 representing the ability to do without any difficulty, and 3 representing inability to do. Any activity that requires assistance from another individual or requires the use of an assistive device raises a 0 or 1 score to a 2. The highest score for each of the 8 domains is summed (range from 0 to 24) and divided by 8 to yield, on a scale with 25 possible values, a Functional Disability Index with a range from 0 to 3. The disability index is based on the number of domains answered and is computed only if the subject completes answers to at least 6 domains. The HAQ pain scale asks subjects to record how much pain they have had in the past week on a scale of 0 to 100, where zero represents “no pain” and 100 represents “severe pain”. The HAQ health scale is a measure of overall health. Subjects are asked to rate how well they are doing on a score of 0 to 100, where zero represents “very well” and 100 represents “very poor” health.

[1] = Day 1 vs Methotrexate Baseline, n=13
[2] = Early Termination Visit vs Methotrexate Baseline, n=3
[3] = Early Termination Visit vs Pegloticase Baseline, n=3
[4] = End of Pegloticase Infusions Visit vs Methotrexate Baseline, n=2
[5] = End of Pegloticase Infusions Visit vs Pegloticase Baseline, n=2
[6] = End of Pegloticase Infusions Visit, n=2
[7] = Week 14 vs Methotrexate Baseline, n=14
[8] = Week 14 vs Pegloticase Baseline, n=14
[9] = Week 24 vs Methotrexate Baseline, n=11
[10] = Week 24 vs Pegloticase Baseline, n=11
[11] = Week 36 vs Methotrexate Baseline, n=9
[12] = Week 36 vs Pegloticase Baseline, n=9
[13] = Week 52/ET vs Methotrexate Baseline, n=3
[14] = Week 52/ET vs Pegloticase Baseline, n=3

B1: pegloticase (protein)
chain: TYKKNDEVEFVRTGYGKDMIKVLHIQRDGKYHSIKEVATTVQLTLSSKKDYLHGDNSDVIPTDTIKNTVNVLAKFKGIKSIETFAVTICEHFLSSFKHVIRAQVYVEEVPWKRFEKNGVKHVHAFIYTPTGTHFCEVEQIRNGPPVIHSGIKDLKVLKTTQSGFEGFIKDQFTTLPEVKDRCFATQVYCKWRYHQGRDVDFEATWDTVRSIVLQKFAGPYDKGEYSPSVQKTLYDIQVLTLGQVPEIEDMEISLPNIHYLNIDMSKMGLINKEEVLLPLDNPYGKITGTVKRKLSSRL
modifications: monomethoxy PEG conjugated; Krystexxa Sequence
notes: covalent conjugate of uricase produced by a genetically modified strain of Escherichia coli and monomethoxypoly (ethylene glycol)
Q: Which results are given for B1?
A: HAQ-DI, Observed, Mean (SD) (Day 1, n=13): 0.8 (0.77); HAQ-DI, Observed, Median (Day 1, n=13): 0.5; HAQ-Health, Observed, Mean (SD) (Day 1, n=13): 37.8 (27.06); HAQ-Health, Observed, Median (Day 1, n=13): 25.0; HAQ-Pain, Observed, Mean (SD) (Day 1, n=13): 42.5 (22.24); HAQ-Pain, Observed, Median (Day 1, n=13): 40.0; HAQ-DI, Change from Baseline, Mean (SD) [1]: 0.1 (0.27); HAQ-DI, Change from Baseline, Median [1]: 0.0; HAQ-Health, Change from Baseline, Mean (SD) [1]: −8.8 (38.29); HAQ-Health, Change from Baseline, Median [1]: 10.0; HAQ-Pain, Change from Baseline, Mean (SD) [1]: 2.3 (19.93); HAQ-Pain, Change from Baseline, Median [1]: 0.0; HAQ-DI, Change from Baseline, Mean (SD) [2]: 0.2 (0.90); HAQ-DI, Change from Baseline, Median [2]: −0.3; HAQ-Health, Change from Baseline, Mean (SD) [2]: −0.7 (16.77); HAQ-Health, Change from Baseline, Median [2]: 8.0; HAQ-Pain, Change from Baseline, Mean (SD) [2]: 19.0 (36.51); HAQ-Pain, Change from Baseline, Median [2]: 7.0; HAQ-DI, Change from Baseline, Mean (SD) [3]: 0.2 (0.56); HAQ-DI, Change from Baseline, Median [3]: 0.1; HAQ-Health, Change from Baseline, Mean (SD) [3]: −11.7 (62.52); HAQ-Health, Change from Baseline, Median [3]: −10.0; HAQ-Pain, Change from Baseline, Mean (SD) [3]: 0.0 (45.83); HAQ-Pain, Change from Baseline, Median [3]: −10.0; HAQ-DI, Observed, Mean (SD) (Early Termination Visit, n=3): 0.7 (0.51); HAQ-DI, Observed, Median (Early Termination Visit, n=3): 0.6; HAQ-Health, Observed, Mean (SD) (Early Termination Visit, n=3): 28.3 (40.72); HAQ-Health, Observed, Median (Early Termination Visit, n=3): 10.0; HAQ-Pain, Observed, Mean (SD) (Early Termination Visit, n=3): 46.7 (40.41); HAQ-Pain, Observed, Median (Early Termination Visit, n=3): 40.0; HAQ-DI, Change from Baseline, Mean (SD) [4]: −0.1 (0.35); HAQ-DI, Change from Baseline, Median [4]: −0.1; HAQ-Health, Change from Baseline, Mean (SD) [4]: −80.0 (0.00); HAQ-Health, Change from Baseline, Median [4]: −80.0; HAQ-Pain, Change from Baseline, Mean (SD) [4]: 2.5 (74.25); HAQ-Pain, Change from Baseline, Median [4]: 2.5; HAQ-DI, Change from Baseline, Mean (SD) [5]: −0.1 (0.35); HAQ-DI, Change from Baseline, Median [5]: −0.1; HAQ-Health, Change from Baseline, Mean (SD) [5]: −45.0 (49.50); HAQ-Health, Change from Baseline, Median [5]: −45.0; HAQ-Pain, Change from Baseline, Mean (SD) [5]: 2.5 (74.25); HAQ-Pain, Change from Baseline, Median [5]: 2.5; HAQ-DI, Observed, Mean (SD) [6]: 0.1 (0.18); HAQ-DI, Observed, Median [6]: 0.1; HAQ-Health, Observed, Mean (SD) [6]: 0.0 (0.00); HAQ-Health, Observed, Median [6]: 0.0; HAQ-Pain, Observed, Mean (SD) [6]: 40.0 (56.57); HAQ-Pain, Observed, Median [6]: 40.0; HAQ-DI, Observed, Mean (SD) (Week 14, n=14): 0.5 (0.41); HAQ-DI, Observed, Median (Week 14, n=14): 0.5; HAQ-Health, Observed, Mean (SD) (Week 14, n=14): 36.6 (33.87); HAQ-Health, Observed, Median (Week 14, n=14): 16.5; HAQ-Pain, Observed, Mean (SD) (Week 14, n=14): 27.1 (26.25); HAQ-Pain, Observed, Median (Week 14, n=14): 15.0; HAQ-DI, Change from Baseline, Mean (SD) [7]: −0.2 (0.77); HAQ-DI, Change from Baseline, Median [7]: 0.0; HAQ-Health, Change from Baseline, Mean (SD) [7]: −12.5 (36.79); HAQ-Health, Change from Baseline, Median [7]: −5.0; HAQ-Pain, Change from Baseline, Mean (SD) [7]: −13.9 (30.48); HAQ-Pain, Change from Baseline, Median [7]: −12.5; HAQ-DI, Change from Baseline, Mean (SD) [8]: −0.3 (0.80); HAQ-DI, Change from Baseline, Median [8]: 0.0; HAQ-Health, Change from Baseline, Mean (SD) [8]: −4.3 (43.82); HAQ-Health, Change from Baseline, Median [8]: −1.0; HAQ-Pain, Change from Baseline, Mean (SD) [8]: −16.0 (30.65); HAQ-Pain, Change from Baseline, Median [8]: −12.5; HAQ-DI, Observed, Mean (SD) (Week 24, n=11): 0.2 (0.33); HAQ-DI, Observed, Median (Week 24, n=11): 0.1; HAQ-Health, Observed, Mean (SD) (Week 24, n=11): 21.4 (26.65); HAQ-Health, Observed, Median (Week 24, n=11): 10.0; HAQ-Pain, Observed, Mean (SD) (Week 24, n=11): 25.4 (27.50); HAQ-Pain, Observed, Median (Week 24, n=11): 20.0; HAQ-DI, Change from Baseline, Mean (SD) [9]: −0.5 (0.74); HAQ-DI, Change from Baseline, Median [9]: −0.1; HAQ-Health, Change from Baseline, Mean (SD) [9]: −33.2 (36.01); HAQ-Health, Change from Baseline, Median [9]: −40.0; HAQ-Pain, Change from Baseline, Mean (SD) [9]: −19.2 (35.13); HAQ-Pain, Change from Baseline, Median [9]: −10.0; HAQ-DI, Change from Baseline, Mean (SD) [10]: −0.6 (0.85); HAQ-DI, Change from Baseline, Median [10]: −0.1; HAQ-Health, Change from Baseline, Mean (SD) [10]: −19.7 (43.38); HAQ-Health, Change from Baseline, Median [10]: −10.0; HAQ-Pain, Change from Baseline, Mean (SD) [10]: −16.7 (38.53); HAQ-Pain, Change from Baseline, Median [10]: −10.0; HAQ-DI, Observed, Mean (SD) (Week 36, n=9): 0.3 (0.49); HAQ-DI, Observed, Median (Week 36, n=9): 0.1; HAQ-Health, Observed, Mean (SD) (Week 36, n=9): 27.3 (35.18); HAQ-Health, Observed, Median (Week 36, n=9): 10.0; HAQ-Pain, Observed, Mean (SD) (Week 36, n=9): 21.0 (27.60); HAQ-Pain, Observed, Median (Week 36, n=9): 10.0; HAQ-DI, Change from Baseline, Mean (SD) [11]: −0.5 (0.80); HAQ-DI, Change from Baseline, Median [11]: 0.0; HAQ-Health, Change from Baseline, Mean (SD) [11]: −27.7 (42.59); HAQ-Health, Change from Baseline, Median [11]: −10.0; HAQ-Pain, Change from Baseline, Mean (SD) [11]: −22.9 (28.41); HAQ-Pain, Change from Baseline, Median [11]: −20.0; HAQ-DI, Change from Baseline, Mean (SD) [12]: −0.5 (0.86); HAQ-DI, Change from Baseline, Median [12]: −0.1; HAQ-Health, Change from Baseline, Mean (SD) [12]: −16.2 (50.72); HAQ-Health, Change from Baseline, Median [12]: −10.0; HAQ-Pain, Change from Baseline, Mean (SD) [12]: −19.9 (20.25); HAQ-Pain, Change from Baseline, Median [12]: −20.0; HAQ-DI, Change from Baseline, Mean (SD) [13]: −0.6 (0.87); HAQ-DI, Change from Baseline, Median [13]: −0.1; HAQ-Health, Change from Baseline, Mean (SD) [13]: −16.7 (59.23); HAQ-Health, Change from Baseline, Median [13]: 15.0; HAQ-Pain, Change from Baseline, Mean (SD) [13]: −42.7 (18.04); HAQ-Pain, Change from Baseline, Median [13]: −44.0; HAQ-DI, Change from Baseline, Mean (SD) [14]: −0.8 (1.08); HAQ-DI, Change from Baseline, Median [14]: −0.1; HAQ-Health, Change from Baseline, Mean (SD) [14]: 23.3 (54.85); HAQ-Health, Change from Baseline, Median [14]: 5.0; HAQ-Pain, Change from Baseline, Mean (SD) [14]: −41.0 (25.24); HAQ-Pain, Change from Baseline, Median [14]: −29.0; HAQ-DI, Observed, Mean (SD) (Week 52/ET, n=3): 0.4 (0.29); HAQ-DI, Observed, Median (Week 52/ET, n=3): 0.3; HAQ-Health, Observed, Mean (SD) (Week 52/ET, n=3): 60.0 (48.22); HAQ-Health, Observed, Median (Week 52/ET, n=3): 80.0; HAQ-Pain, Observed, Mean (SD) (Week 52/ET, n=3): 4.0 (5.20); HAQ-Pain, Observed, Median (Week 52/ET, n=3): 1.0

Reference: patent US20220323445A1, “REDUCING IMMUNOGENICITY TO PEGLOTICASE” (Horizon Therapeutics Ireland DAC, priority 2020, published 2022)
